Source: patent publication US20170129954A1 (PROTHENA BIOSCIENCES, published 2017)
Residue numbers refer to the chain shown, from its start. Numbers in names are those of the source.

What was measured:
recombinant laminin 511 = target: T1, recombinant laminin 511 (UniProt O15230 36-3695; P07942 22-1786; P11047 34-1609); experiment: flow cytometry with pan-laminin antibody on CHO cells transfected with human MCAM
T1 construct: also called laminin 10 (α5β1γ1)

laminin α-4 = laminin α-4 (UniProt Q16363 25-1823); experiment: FACS on mammalian cells displaying the mutant
Source text: Twenty point mutants based on the structure information and shotgun mutagenesis information were designed and generated.

Sequence of laminin α-4 (Q16363 25-1823): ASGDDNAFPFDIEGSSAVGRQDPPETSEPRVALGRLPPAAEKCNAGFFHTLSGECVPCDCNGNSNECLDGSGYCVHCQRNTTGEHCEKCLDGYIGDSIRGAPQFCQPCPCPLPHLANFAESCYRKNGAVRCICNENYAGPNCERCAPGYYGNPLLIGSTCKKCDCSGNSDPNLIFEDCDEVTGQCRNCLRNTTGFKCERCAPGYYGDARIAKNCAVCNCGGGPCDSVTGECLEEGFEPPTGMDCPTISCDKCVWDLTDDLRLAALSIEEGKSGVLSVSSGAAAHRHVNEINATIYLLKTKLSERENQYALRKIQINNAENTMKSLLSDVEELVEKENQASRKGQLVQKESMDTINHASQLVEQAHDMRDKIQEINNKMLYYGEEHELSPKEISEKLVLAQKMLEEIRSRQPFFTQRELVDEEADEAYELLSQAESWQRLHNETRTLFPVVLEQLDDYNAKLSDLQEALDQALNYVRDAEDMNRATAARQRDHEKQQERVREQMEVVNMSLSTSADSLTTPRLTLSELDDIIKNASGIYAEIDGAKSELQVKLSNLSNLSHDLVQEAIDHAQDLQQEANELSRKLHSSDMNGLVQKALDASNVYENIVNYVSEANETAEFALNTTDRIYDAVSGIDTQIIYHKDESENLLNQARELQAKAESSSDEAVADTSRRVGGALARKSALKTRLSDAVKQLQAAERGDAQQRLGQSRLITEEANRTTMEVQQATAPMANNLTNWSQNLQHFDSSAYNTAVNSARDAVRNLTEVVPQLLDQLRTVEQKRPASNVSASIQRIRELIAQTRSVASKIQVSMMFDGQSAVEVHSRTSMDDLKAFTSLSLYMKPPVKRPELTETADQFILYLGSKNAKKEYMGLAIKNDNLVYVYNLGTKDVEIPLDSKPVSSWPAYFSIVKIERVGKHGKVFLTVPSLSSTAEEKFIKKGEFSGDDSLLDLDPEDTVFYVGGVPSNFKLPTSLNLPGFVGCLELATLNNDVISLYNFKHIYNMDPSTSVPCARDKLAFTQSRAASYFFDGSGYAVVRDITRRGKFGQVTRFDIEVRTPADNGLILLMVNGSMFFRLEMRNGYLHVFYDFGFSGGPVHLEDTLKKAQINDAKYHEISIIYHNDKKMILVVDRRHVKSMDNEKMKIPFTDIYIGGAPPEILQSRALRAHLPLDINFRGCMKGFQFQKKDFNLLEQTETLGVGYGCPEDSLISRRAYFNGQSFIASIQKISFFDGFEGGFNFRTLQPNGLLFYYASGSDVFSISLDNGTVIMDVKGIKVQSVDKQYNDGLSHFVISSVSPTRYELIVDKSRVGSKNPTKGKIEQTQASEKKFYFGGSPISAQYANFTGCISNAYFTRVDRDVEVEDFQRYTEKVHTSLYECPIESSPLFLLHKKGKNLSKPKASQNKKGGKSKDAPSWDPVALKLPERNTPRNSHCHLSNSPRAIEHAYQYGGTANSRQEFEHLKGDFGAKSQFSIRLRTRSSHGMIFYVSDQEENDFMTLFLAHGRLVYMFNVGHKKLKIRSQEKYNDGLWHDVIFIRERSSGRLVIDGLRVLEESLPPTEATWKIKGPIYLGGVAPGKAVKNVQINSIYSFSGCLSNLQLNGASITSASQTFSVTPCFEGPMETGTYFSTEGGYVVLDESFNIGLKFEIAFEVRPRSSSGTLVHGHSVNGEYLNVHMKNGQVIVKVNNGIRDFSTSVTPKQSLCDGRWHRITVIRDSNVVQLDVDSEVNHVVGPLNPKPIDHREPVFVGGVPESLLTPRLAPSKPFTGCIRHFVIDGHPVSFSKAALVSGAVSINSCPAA

B1: human MCAM, full length, expressed on transfected cells (receptor)
chain: VPGEAEQPAPELVEVEVGSTALLKCGLSQSQGNLSHVDWFSVHKEKRTLIFRVRQGQGQSEPGEYEQRLSLQDRGATLALTQVTPQDERIFLCQGKRPRSQEYRIQLRVYKAPEEPNIQVNPLGIPVNSKEPEEVATCVGRNGYPIPQVIWYKNGRPLKEEKNRVHIQSSQTVESSGLYTLQSILKAQLVKEDKDAQFYCELNYRLPSGNHMKESREVTVPVFYPTEKVWLEVEPVGMLKEGDRVEIRCLADGNPPPHFSISKQNPSTREAEEETTNDNGVLVLEPARKEHSGRYECQAWNLDTMISLLSEPQELLVNYVSDVRVSPAAPERQEGSSLTLTCEAESSQDLEFQWLREETDQVLERGPVLQLHDLKREAGGGYRCVASVPSIPGLNRTQLVKLAIFGPPWMAFKERKVWVKENMVLNLSCEASGHPRPTISWNVNGTASEQDQDPQRVLSTLNVLVTPELLETGVECTASNDLGKNTSILFLELVNLTTLTPDSNTTTGLSTSTASPHTRANSTSTERKLPEPESRGVVIVAVIVCILVLAVLGAVLYFLYKKGKLPCRRSGKQEITLPPSRKTELVVEVKSDKLPEEMGLLQGSSGDKRAPGDQGEKYIDLRH
notes: also called CD146; MUC18
- binding result (recombinant laminin 511): no binding (tested: 10 µg/ml)

B2: human MCAM Y318A single mutant displayed on mammalian cells (receptor)
chain: B1 chain with Y295A
notes: also called Y318A mutant
- binding result (laminin α-4): no binding

B3: human MCAM D216A single mutant displayed on mammalian cells (receptor)
chain: B1 chain with D193A
- binding result (laminin α-4): no binding
